Our source for the IC50 and Kd values is the Immune Epitope Database (IEDB).

Conditions in all cases: source organism: Homo sapiens
The target of experiment [1] is HLA-A*03:01. The experiment in a line: IEDB peptide-MHC binding, purified MHC/competitive/radioactivity; ≥ and ≤ were set here for values at or beyond the usual limits of such assays.
In experiment [2] the target is HLA-A*33:01. The experiment is described as follows: IEDB peptide-MHC binding, purified MHC/competitive/radioactivity; filed as Kd, often an IC50 or EC50 that approximates it; ≥ and ≤ were set here for values at or beyond the usual limits of such assays.
The target of experiment [3] is HLA-A*31:01. The description is as above.
Experiment [4] deals with HLA-A*68:01. The experiment is described as above.
Experiment [5] concerns the target HLA-A*11:01. The experiment is described as follows: IEDB peptide-MHC binding, purified MHC/competitive/radioactivity; ≥ and ≤ were set here for values at or beyond the usual limits of such assays.

For the sequence LIYRRRLMK, in experiment [1], the IC50 (as a rule, the point on the concentration scale where inhibition reaches its midpoint) worked out at 5.5 nM.

Regarding ALNFPGSQK, the Kd in experiment [2], in experiment [3] and in experiment [4] was at least 10000 nM throughout. In addition, the results for the IC50 in experiment [1] and in experiment [5] were 8.5 nM and 4.6 nM, respectively.

As for SLIYRRRLMK, the IC50 in experiment [1] turned out to be 39.3 nM.

On to IALNFPGSQK, for which the Kd (usually the equilibrium constant for the complex coming apart) in experiment [2] was at least 10000 nM; in experiment [3], at least 10000 nM; in experiment [4], 4700 nM. The 50% inhibitory concentration (IC50) is 36.7 nM in experiment [1] and 316 nM in experiment [5].

In the case of QLVLHQILK, in experiment [1], the IC50 was 52.4 nM.
